Source: the supplement of paper PMC7877785
± gives the uncertainty stated by the source.

Assay: self-splicing fitness, log relative to wild type (ln ratio); higher = more splicing; Tetrahymena group I intron in knt gene, E. coli kanamycin selection, DiMSum; sequences stand for … in CUCUCU…GGAGGGAAAAGUUAUCAGGCAUGCACCUGGUAGCUAGUCUUUAAACCAAUAGAUUGCAUCGGUUUAAAAGGCAAGACCGUCAAAUUGCGGGAAAGGGGUCAACAGCCGUUCAGUACCAAGUCUCAGGGGAAACUUUGAGAUGGCCUUGCAAAGGGUAUGGUAAUAAGCUGACGGACAUGGUCCUAACCACGCAGCCAAGUCCUAAGUCAACAGAUCUUCUGUUGAUAUGGAUGCAGUUCACAGACUAAAUGUCGGUCGGGGAAGAUGUAUUCUUCUCAUAAGAUAUAGUCGGACCUCUCCUUAAUGGGAGCUAGCGGAUGAAGUGAUGCAACACUGGAGCCGCUGGGAACUAAUUUGUAUGCGAAAGUAUAUUGAUUAGUUUUGGAGUACUCGUGGUCG
Method in brief: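 Library with all eight P1ex-region intron nucleotides randomised, intron inside the knt kanamycin-resistance gene on pET-22b(+), in E. coli BL21(DE3). Cells grew overnight at 37°C or 30°C on LB agar with or without 25 μg/mL kanamycin (plus 100 μg/mL carbenicillin, 50 μM IPTG, 0.2% rhamnose), in six replicate transformations. Pooled colonies were amplicon-sequenced on Illumina HiSeq 2500. DiMSum fitness is the error-weighted combination of wild-type-normalised replicate fold changes, kanamycin versus none.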

| Sequence | self-splicing fitness (ln) (30 °C) | self-splicing fitness (ln) (37 °C) |
| --- | --- | --- |
| CAACAGCAAUAUUACGUCAC | -3.96 ± 0.24 | -2.26 ± 0.18 |
| CAACAGCAAUAUUACGUCCG | -0.0787 ± 0.06 | 0.513 ± 0.076 |
| CAACAGCAAUAUUACGUGGG | -3.25 ± 0.096 | -1.11 ± 0.075 |
| CAACAGCAAUAUUACGUGUG | -3.55 ± 0.14 | -2.32 ± 0.11 |
| CAACAGCAAUAUUACGUUAG | -2.13 ± 0.076 | -1.52 ± 0.089 |
| CAACAGCAAUAUUACGUUCU | -1.32 ± 0.073 | -0.92 ± 0.094 |
| CAACAGCAAUAUUACGUUGC | -4.78 ± 0.36 | -1.54 ± 0.14 |
| CAAGAGCAAUAUUACGAACG | -0.336 ± 0.063 | 0.335 ± 0.079 |
| CAAGAGCAAUAUUACGAGCA | -2.85 ± 0.28 | -2.63 ± 0.38 |
| CAAGAGCAAUAUUACGAGUG | -1.46 ± 0.089 | -1.23 ± 0.12 |
| CAAGAGCAAUAUUACGAUAU | -3.3 ± 0.29 | -2.7 ± 0.3 |
| CAAGAGCAAUAUUACGCAUU | -3.39 ± 0.27 | -2.51 ± 0.21 |
| CAAGAGCAAUAUUACGCCCG | -1.84 ± 0.2 | -1.03 ± 0.22 |
| CAAGAGCAAUAUUACGCCGU | -1.59 ± 0.47 | – |
| CAAGAGCAAUAUUACGCGCG | -1.47 ± 0.093 | -0.891 ± 0.13 |
| CAAGAGCAAUAUUACGCGCU | -3.72 ± 0.4 | -2.34 ± 0.33 |
| CAAGAGCAAUAUUACGCUGA | -2.97 ± 0.19 | -2.08 ± 0.21 |
| CAAGAGCAAUAUUACGCUGU | -3.93 ± 0.36 | -2.34 ± 0.24 |
| CAAGAGCAAUAUUACGCUUC | -3.61 ± 0.37 | -2.23 ± 0.43 |
| CAAGAGCAAUAUUACGGAAC | -3.74 ± 0.17 | -2.52 ± 0.19 |
| CAAGAGCAAUAUUACGGCAG | -1.54 ± 0.091 | -0.926 ± 0.13 |
| CAAGAGCAAUAUUACGGCUC | -3.78 ± 0.24 | -2.27 ± 0.32 |

| Sequence | self-splicing fitness (ln) (30 °C) | self-splicing fitness (ln) (37 °C) |
| --- | --- | --- |
| CAAGAGCAAUAUUACGGGAG | -2.35 ± 0.11 | -1.8 ± 0.12 |
| CAAGAGCAAUAUUACGGGGC | -1.99 ± 0.14 | -3.02 ± 0.25 |
| CAAGAGCAAUAUUACGUAGC | – | -1.86 ± 0.43 |
| CAAGAGCAAUAUUACGUGAA | -3.89 ± 0.22 | -2.75 ± 0.23 |
| CAAGAGCAAUAUUACGUGCC | -3.59 ± 0.32 | -3.51 ± 0.39 |
| CAAGAGCAAUAUUACGUGCG | -1.17 ± 0.074 | 0.135 ± 0.09 |
| CAAGAGCAAUAUUACGUGGC | -3.77 ± 0.2 | -3.41 ± 0.28 |
| CAAGAGCAAUAUUACGUGUC | -4.19 ± 0.2 | -3.11 ± 0.2 |
| CAAUAGCAAUAUUACGAAAC | – | -1.35 ± 0.24 |
| CAAUAGCAAUAUUACGAAAG | -1.47 ± 0.082 | -0.294 ± 0.13 |
| CAAUAGCAAUAUUACGAACC | -2.22 ± 0.35 | – |
| CAAUAGCAAUAUUACGAACG | -0.128 ± 0.053 | 0.24 ± 0.07 |
| CAAUAGCAAUAUUACGAACU | -3.14 ± 0.27 | -1.83 ± 0.18 |
| CAAUAGCAAUAUUACGAAGC | -3.01 ± 0.32 | -2.73 ± 0.32 |
| CAAUAGCAAUAUUACGACAA | -3.42 ± 0.18 | -2.07 ± 0.15 |
| CAAUAGCAAUAUUACGAGUG | -0.279 ± 0.079 | -0.905 ± 0.11 |
| CAAUAGCAAUAUUACGAUCU | -3.45 ± 0.22 | -1.91 ± 0.21 |
| CAAUAGCAAUAUUACGAUGA | -2.26 ± 0.18 | -1.54 ± 0.23 |
| CAAUAGCAAUAUUACGAUGU | -3.19 ± 0.14 | -2.32 ± 0.2 |
| CAAUAGCAAUAUUACGCACG | -1.01 ± 0.19 | -1.12 ± 0.17 |
| CAAUAGCAAUAUUACGCAGG | -1.75 ± 0.13 | -0.433 ± 0.11 |
